Measurements as given in patent US20260168005A1, “DRUG SCREENING METHOD BASED ON DRUG DISCOVERY CONCEPT OF CANCER CELL PROLIFERATION INHIBITION INDUCED BY DISRUPTION OF CHROMOSOME REGULATION DUE TO PLK1 KINASE ACTIVATION” (JAPANESE FOUNDATION FOR CANCER RESEARCH, priority 2022, published 2026).
No end group written: not given here.

B1: PxVXL peptide (negative control peptide that does not bind to PLK1) (peptide)
peptide: NHTQCQLVPVVEIGISERQN
notes: Printed in the text as NHTQCQLVPVVEIGISERON; The 'O' may be a printing error

How the values were obtained:
HeLa cells = assay: Cell death on expression of GFP-tagged PON peptide, live cell imaging; assay type: cell-based; settings: plasmid transfection, GFP tag at N-terminus, live cell imaging (FIG. 6B)
Excerpt: (§1) Plasmids that express WT ([…]: SEQ ID NO: 1) and a TA mutant (Plk1 unbound, […]: SEQ ID NO: 2) of the PON peptide with a GFP tag added to the N-terminus were introduced into HeLa cells by a plasmid transfection method with FuGENE HD transfection Reagent (Promega Corporation) and into RPE1 cells by a nucleofection method with 4D nucleofector (Lonza Group Ltd.). Since the PON peptide binds to the PBD upon phosphorylation by Cdk1, a TA mutant of the PON peptide in which the phosphorylation site was substituted with Ala was used as a negative control.
(§2) Observation was performed using live cell imaging, and the number of cells that underwent cell death in cells with GFP expression observed was counted. […] In other words, suppression of the association of the PBD and KD of endogenous Plk1 can cause significant cell growth suppression to be induced in cancer cells (FIG. 6B). From the fact that induction of cell death due to Plk1 activation is not observed in normal cells, compounds that activate Plk1 are expected to exert an effect in a cancer cell-specific manner.

RPE1 cells = assay: as above; assay type: cell-based; settings: RPE1 normal diploid cells, nucleofection, GFP tag at N-terminus, live cell imaging (FIG. 6B)
Excerpt: as §1, §2

recombinant GST-His-Plk1 = recombinant GST-His-Plk1 (Homo sapiens, UniProt P53350); assay: Intramolecular TR-FRET assay of kinase domain / Polo-Box domain association; assay type: binding; settings: Plk1 0 to 100 nM; pPON 0 to 1000 µM, PxVXL 25 to 100 µM; room temperature 1 hour, then GST-Tb and His-d2 3 hours (FIG. 7B)
Excerpt: In other words, it is an assay system that reflects the folding state within Plk1 molecules, and a screening system for drug discovery sees according to the mechanism of action of “inhibiting the suppressive association within the molecules to lead to kinase activation”. A fluorescence resonance energy transfer (FRET) assay system that detects the interaction of PBD that suppressively associates with the Plk1 kinase domain was constructed. The design was made as follows: a full-length recombinant protein was purified, and a donor (GST-Tb) were placed in the kinase domain and an acceptor (His-d2) in the PBD using antibodies that act as luminescent agents based on the conformational information so that the FRET reaction would efficiently occur.
A recombinant Plk1 in which a GST tag was added into a pFastBacl vector at the N-terminus, and a 6His-tag was inserted in the vicinity of the N-terminus of PB1 (Polo-Box 1) was constructed (left in FIG. 7A, GST-His-Plk1). […]
Intramolecular FRET analysis was performed using the recombinant GST-His-Plk1. […] Then, GST-Tb and His-d2 (PerkinElmer, Inc., MAb Anti-GST-Tb cryptate, MAb Anti-6HIS-d2) were added thereto to react at room temperature for 3 hours, and the emission signals were measured using the time-resolved fluorescence-fluorescence resonance energy transfer method (TR-FRET). […]

endogenous Plk1 = endogenous Plk1 (UniProt P53350); assay: cell-based or functional assay
[1] = target: recombinant GST-His-Plk1 (WT) (Homo sapiens, UniProt P53350); assay: ADP-Glo kinase assay with dephosphorylated casein substrate; assay type: biochemical; settings: pPON 0 to 1000 M; 0.5 μg dephosphorylated casein; 5 µM ATP; room temperature 1 hour (FIG. 10A)
Description: Further, the kinase activity of GST-His-Plk1 was evaluated by a kinase assay. First, it was confirmed that the kinase activity of the recombinant GST-His-Plk1, which contained a His-tag for FRET in the molecule, was equivalent to that of the one without the tag. Next, GST-His-Plk1 was used and mixed with 0.5 μg of dephosphorylated casein as a phosphorylation substrate in the presence of pPON ([…]), a kinase reaction was performed at room temperature for 1 hour in the presence of 5 µM of ATP, and a kinase reaction was performed between the recombinant GST-His-Plk1 (WT) (0 to 3.36 μM) and the dephosphorylated casein. Using an ADP-Glo (trademark) kinase assay kit (Promega Corporation), the kinase activity was measured by an ADP-Glo method, which quantifies in the […]. […] Also, the results of the kinase assays using the S137D/T210D mutant and S137D mutant also indicate that high kinase activity can be obtained when the intramolecular association is inhibited (FIG. 10B). Accordingly, the kinase assay can be used as a screening method that detects the association between the kinase domain and PBD of Plk1, and suppression of the association can be detected. Also, in the case of using the kinase assay for screening, a construct in which a kinase domain and PBD are separated can also be used.

[2] = target: T1, recombinant GST-His-Plk1 (WT) (UniProt P53350 2-603, limits assumed); assay: intramolecular TR-FRET on GST-His-Plk1 (indirect read-out)
T1 construct: mature; Made in the Baculovirus/Sf9 system and purified on Glutathione Sepharose; also called Plk1 recombinant protein; wild-type GST-His-Plk1; not shown: N-terminal GST tag
T1 sequence (P53350 2-603 limits assumed): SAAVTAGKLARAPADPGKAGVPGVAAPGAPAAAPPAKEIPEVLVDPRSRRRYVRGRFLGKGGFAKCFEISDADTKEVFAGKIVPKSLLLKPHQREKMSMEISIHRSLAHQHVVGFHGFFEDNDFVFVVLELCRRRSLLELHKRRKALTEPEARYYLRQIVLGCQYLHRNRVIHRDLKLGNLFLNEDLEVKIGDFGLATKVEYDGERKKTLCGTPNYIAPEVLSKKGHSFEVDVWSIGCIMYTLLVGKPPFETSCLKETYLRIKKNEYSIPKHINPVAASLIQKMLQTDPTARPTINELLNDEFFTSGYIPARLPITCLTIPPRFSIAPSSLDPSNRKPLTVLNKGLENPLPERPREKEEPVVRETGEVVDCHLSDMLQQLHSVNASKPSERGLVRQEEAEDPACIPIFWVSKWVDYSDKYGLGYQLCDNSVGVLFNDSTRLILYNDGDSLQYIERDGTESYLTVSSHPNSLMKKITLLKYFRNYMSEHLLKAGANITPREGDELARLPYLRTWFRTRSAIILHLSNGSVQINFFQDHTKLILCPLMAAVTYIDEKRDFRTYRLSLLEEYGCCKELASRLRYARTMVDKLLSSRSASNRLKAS

Sequence of recombinant GST-His-Plk1 (P53350 whole entry, the tested form may be a part): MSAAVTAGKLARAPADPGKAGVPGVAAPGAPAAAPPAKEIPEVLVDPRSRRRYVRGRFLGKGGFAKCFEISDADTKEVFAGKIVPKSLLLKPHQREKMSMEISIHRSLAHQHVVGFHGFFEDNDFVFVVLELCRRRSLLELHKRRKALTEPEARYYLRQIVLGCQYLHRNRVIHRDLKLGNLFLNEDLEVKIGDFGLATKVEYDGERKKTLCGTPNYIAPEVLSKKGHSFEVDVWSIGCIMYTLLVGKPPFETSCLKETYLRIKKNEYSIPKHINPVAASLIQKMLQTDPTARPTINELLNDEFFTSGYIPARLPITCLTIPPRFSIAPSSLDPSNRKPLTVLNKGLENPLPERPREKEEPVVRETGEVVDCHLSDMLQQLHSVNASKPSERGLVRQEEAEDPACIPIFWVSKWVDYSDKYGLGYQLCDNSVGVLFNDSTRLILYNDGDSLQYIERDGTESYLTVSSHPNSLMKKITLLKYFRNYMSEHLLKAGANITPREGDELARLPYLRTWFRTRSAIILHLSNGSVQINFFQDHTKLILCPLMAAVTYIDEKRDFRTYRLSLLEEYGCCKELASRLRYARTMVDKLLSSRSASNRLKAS
Sequence of endogenous Plk1 (P53350 2-603 limits assumed): as the sequence (P53350 2-603 limits assumed) above
Sequence of recombinant GST-His-Plk1 (WT) (Homo sapiens, UniProt P53350) (P53350 whole entry): as the sequence (P53350 whole entry, the tested form may be a part) above

Row | Molecule | death of cells (percentage of GFP-expressing cells that underwent cell death) (HeLa cells) | FRET signal (His-d2 relative to GST-Tb) (recombinant GST-His-Plk1) | also measured
1 | ESCFTNAAFSSAPKK [TA mutant, reference compound] | about 30% |  | 
2 | ESCFTNAAFSSTPKK [PON peptide] | ≥ 70% |  | increase in cell death (RPE1 cells): no increase in cell death was observed
3 | NHTQCQLVPVVEIGISERON (NHTQCQLVPVVEIGISERQN) [PxVXL, reference compound] |  | this effect was not observed | 
4 | PON peptide WT with a GFP tag added to the N-terminus |  |  | percentage of cell death in GFP-expressing HeLa cells (live cell imaging) (endogenous Plk1): > 70%
5 | pPON: pPON peptide (SEQ ID NO: 1) reacted with recombinant Plk1 in FRET and kinase assays (ESCFTNAAFSSTPKK; also: phosphorylated, position not given here) |  | FRET signals were reproducibly observed to gradually decrease | kinase activity [1]: kinase activity increased depending on the amount of pPON added
6 | B1 |  |  | binding result [2]: no binding (tested: 25 to 100 UM)
